Key:
CD16A V158 [1] = target: T1, CD16A V158 (human, UniProt P08637 17-208, limits assumed); assay: SPR (BIAcore), koff compared with wild-type Fc
T1 construct: construct not described

CD32A^H = target: T2, CD32A^H (UniProt P12318 34-217, limits assumed); assay: SPR (BIAcore), koff compared with wild-type Fc
T2 construct: also called FcγRIIA
T2 sequence (looked up): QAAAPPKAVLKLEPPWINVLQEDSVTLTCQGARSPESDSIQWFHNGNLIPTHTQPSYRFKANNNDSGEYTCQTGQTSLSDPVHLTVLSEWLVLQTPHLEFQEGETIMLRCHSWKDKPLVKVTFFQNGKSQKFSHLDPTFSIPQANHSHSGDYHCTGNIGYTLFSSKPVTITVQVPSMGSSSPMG

CD32B (FcγRII-B) [2] = target: T3, CD32B (FcγRII-B) (UniProt P31994 43-217, limits assumed); assay: SPR (BIAcore), koff compared with wild-type Fc
T3 sequence (looked up): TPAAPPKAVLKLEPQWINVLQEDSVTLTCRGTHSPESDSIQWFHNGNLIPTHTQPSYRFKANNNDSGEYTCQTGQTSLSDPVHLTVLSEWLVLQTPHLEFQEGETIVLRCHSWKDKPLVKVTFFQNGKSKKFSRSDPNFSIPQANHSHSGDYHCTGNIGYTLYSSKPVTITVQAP

CD16A V158 [3] = target: T1, CD16A V158; assay: method not stated at Table 3
CD16A F158 = target: T4, CD16A F158 (human, UniProt P08637 17-208, limits assumed); assay: method not stated at Table 3
T4 construct: construct not described

CD32B (FcγRII-B) [4] = target: T3, CD32B (FcγRII-B); assay: method not stated at Table 3

T1 sequence (P08637 17-208 F176V limits assumed): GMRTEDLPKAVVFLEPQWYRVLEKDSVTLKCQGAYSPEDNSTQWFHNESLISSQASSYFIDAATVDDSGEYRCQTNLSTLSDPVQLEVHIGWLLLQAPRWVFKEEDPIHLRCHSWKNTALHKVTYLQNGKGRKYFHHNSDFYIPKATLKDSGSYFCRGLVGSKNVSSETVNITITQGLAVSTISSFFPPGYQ
T4 sequence (P08637 17-208 limits assumed): as the sequence (P08637 17-208 F176V limits assumed) above, with V160F counted along it

Binder	WT koff/mutant koff (CD16A V158 [1]) [ratio]	WT koff/mutant koff (CD32A^H) [ratio]	WT koff/mutant koff (CD32B (FcγRII-B) [2]) [ratio]	binding relative to wild-type Fc (CD16A V158 [3]) [fold]	binding relative to wild-type Fc (CD16A F158) [fold]	binding relative to wild-type Fc (CD32B (FcγRII-B) [4]) [fold]
Fc mutant 14: F243L R292P P396L (other, UniProt P01857-1 104-330, looked up, domain: Fc) DKTHTCPPCPAPELLGGPSVFLLPPKPKDTLMISRTPEVTCVVVDVSHEDPEVKFNWYVDGVEVHNAKTKPPEEQYNSTYRVVSVLTVLHQDWLNGKEYKCKVSNKALPAPIEKTISKAKGQPREPQVYTLPPSRDELTKNQVSLTCLVKGFYPSDIAVEWESNGQPENNYKTTPLVLDSDGSFFLYSKLTVDKSRWQQGNVFSCSVMHEALHNHYTQKSLSLSPGK	6.3	1.4	0.4	–	–	–
Fc variant F243L D270E P396L Q419H (other, UniProt P01857-1 104-330, looked up, domain: Fc) DKTHTCPPCPAPELLGGPSVFLLPPKPKDTLMISRTPEVTCVVVDVSHEEPEVKFNWYVDGVEVHNAKTKPREEQYNSTYRVVSVLTVLHQDWLNGKEYKCKVSNKALPAPIEKTISKAKGQPREPQVYTLPPSRDELTKNQVSLTCLVKGFYPSDIAVEWESNGQPENNYKTTPLVLDSDGSFFLYSKLTVDKSRWQHGNVFSCSVMHEALHNHYTQKSLSLSPGK	–	–	–	1.46	1.15	0.26
Fc variant D270E P396L Q419H (other, UniProt P01857-1 104-330, looked up, domain: Fc) DKTHTCPPCPAPELLGGPSVFLFPPKPKDTLMISRTPEVTCVVVDVSHEEPEVKFNWYVDGVEVHNAKTKPREEQYNSTYRVVSVLTVLHQDWLNGKEYKCKVSNKALPAPIEKTISKAKGQPREPQVYTLPPSRDELTKNQVSLTCLVKGFYPSDIAVEWESNGQPENNYKTTPLVLDSDGSFFLYSKLTVDKSRWQHGNVFSCSVMHEALHNHYTQKSLSLSPGK	–	–	–	1.64	–	0.68
Fc variant R255L D270E Y300L P396L (other, UniProt P01857-1 104-330, looked up, domain: Fc) DKTHTCPPCPAPELLGGPSVFLFPPKPKDTLMISLTPEVTCVVVDVSHEEPEVKFNWYVDGVEVHNAKTKPREEQYNSTLRVVSVLTVLHQDWLNGKEYKCKVSNKALPAPIEKTISKAKGQPREPQVYTLPPSRDELTKNQVSLTCLVKGFYPSDIAVEWESNGQPENNYKTTPLVLDSDGSFFLYSKLTVDKSRWQQGNVFSCSVMHEALHNHYTQKSLSLSPGK	–	–	–	1.52	1.74	0.87
Fc variant F243L P247L N421K (other, UniProt P01857-1 104-330, looked up, domain: Fc) DKTHTCPPCPAPELLGGPSVFLLPPKLKDTLMISRTPEVTCVVVDVSHEDPEVKFNWYVDGVEVHNAKTKPREEQYNSTYRVVSVLTVLHQDWLNGKEYKCKVSNKALPAPIEKTISKAKGQPREPQVYTLPPSRDELTKNQVSLTCLVKGFYPSDIAVEWESNGQPENNYKTTPPVLDSDGSFFLYSKLTVDKSRWQQGKVFSCSVMHEALHNHYTQKSLSLSPGK	–	–	–	1.89	1.71	0.17
Fc variant D270E G316D R416G (other, UniProt P01857-1 104-330, looked up, domain: Fc) DKTHTCPPCPAPELLGGPSVFLFPPKPKDTLMISRTPEVTCVVVDVSHEEPEVKFNWYVDGVEVHNAKTKPREEQYNSTYRVVSVLTVLHQDWLNDKEYKCKVSNKALPAPIEKTISKAKGQPREPQVYTLPPSRDELTKNQVSLTCLVKGFYPSDIAVEWESNGQPENNYKTTPPVLDSDGSFFLYSKLTVDKSGWQQGNVFSCSVMHEALHNHYTQKSLSLSPGK	–	–	–	2.18	2.49	0.78
Fc variant P247L D270E N421K (other, UniProt P01857-1 104-330, looked up, domain: Fc) DKTHTCPPCPAPELLGGPSVFLFPPKLKDTLMISRTPEVTCVVVDVSHEEPEVKFNWYVDGVEVHNAKTKPREEQYNSTYRVVSVLTVLHQDWLNGKEYKCKVSNKALPAPIEKTISKAKGQPREPQVYTLPPSRDELTKNQVSLTCLVKGFYPSDIAVEWESNGQPENNYKTTPPVLDSDGSFFLYSKLTVDKSRWQQGKVFSCSVMHEALHNHYTQKSLSLSPGK	–	–	–	1.89	2.46	0.58
Fc variant F243L D270E K392T P396L (other, UniProt P01857-1 104-330, looked up, domain: Fc) DKTHTCPPCPAPELLGGPSVFLLPPKPKDTLMISRTPEVTCVVVDVSHEEPEVKFNWYVDGVEVHNAKTKPREEQYNSTYRVVSVLTVLHQDWLNGKEYKCKVSNKALPAPIEKTISKAKGQPREPQVYTLPPSRDELTKNQVSLTCLVKGFYPSDIAVEWESNGQPENNYTTTPLVLDSDGSFFLYSKLTVDKSRWQQGNVFSCSVMHEALHNHYTQKSLSLSPGK	–	–	–	3.16	2.44	0.44
Fc variant F243L R255L D270E P396L (other, UniProt P01857-1 104-330, looked up, domain: Fc) DKTHTCPPCPAPELLGGPSVFLLPPKPKDTLMISLTPEVTCVVVDVSHEEPEVKFNWYVDGVEVHNAKTKPREEQYNSTYRVVSVLTVLHQDWLNGKEYKCKVSNKALPAPIEKTISKAKGQPREPQVYTLPPSRDELTKNQVSLTCLVKGFYPSDIAVEWESNGQPENNYKTTPLVLDSDGSFFLYSKLTVDKSRWQQGNVFSCSVMHEALHNHYTQKSLSLSPGK	–	–	–	1.75	1.64	0.38
Fc variant F243L P247L D270E N421K (other, UniProt P01857-1 104-330, looked up, domain: Fc) DKTHTCPPCPAPELLGGPSVFLLPPKLKDTLMISRTPEVTCVVVDVSHEEPEVKFNWYVDGVEVHNAKTKPREEQYNSTYRVVSVLTVLHQDWLNGKEYKCKVSNKALPAPIEKTISKAKGQPREPQVYTLPPSRDELTKNQVSLTCLVKGFYPSDIAVEWESNGQPENNYKTTPPVLDSDGSFFLYSKLTVDKSRWQQGKVFSCSVMHEALHNHYTQKSLSLSPGK	–	–	–	2.3	3.45	0.32
Fc variant R255L D270E P396L (other, UniProt P01857-1 104-330, looked up, domain: Fc) DKTHTCPPCPAPELLGGPSVFLFPPKPKDTLMISLTPEVTCVVVDVSHEEPEVKFNWYVDGVEVHNAKTKPREEQYNSTYRVVSVLTVLHQDWLNGKEYKCKVSNKALPAPIEKTISKAKGQPREPQVYTLPPSRDELTKNQVSLTCLVKGFYPSDIAVEWESNGQPENNYKTTPLVLDSDGSFFLYSKLTVDKSRWQQGNVFSCSVMHEALHNHYTQKSLSLSPGK	–	–	–	1.34	1.65	0.87
Fc variant F243I R292P Y300L V305I P396L (other, UniProt P01857-1 104-330, looked up, domain: Fc; 'F243I' as printed) DKTHTCPPCPAPELLGGPSVFLIPPKPKDTLMISRTPEVTCVVVDVSHEDPEVKFNWYVDGVEVHNAKTKPPEEQYNSTLRVVSILTVLHQDWLNGKEYKCKVSNKALPAPIEKTISKAKGQPREPQVYTLPPSRDELTKNQVSLTCLVKGFYPSDIAVEWESNGQPENNYKTTPLVLDSDGSFFLYSKLTVDKSRWQQGNVFSCSVMHEALHNHYTQKSLSLSPGK	–	–	–	–	3.12	1.05
Fc variant R255L D270E R292G P396L (other, UniProt P01857-1 104-330, looked up, domain: Fc) DKTHTCPPCPAPELLGGPSVFLFPPKPKDTLMISLTPEVTCVVVDVSHEEPEVKFNWYVDGVEVHNAKTKPGEEQYNSTYRVVSVLTVLHQDWLNGKEYKCKVSNKALPAPIEKTISKAKGQPREPQVYTLPPSRDELTKNQVSLTCLVKGFYPSDIAVEWESNGQPENNYKTTPLVLDSDGSFFLYSKLTVDKSRWQQGNVFSCSVMHEALHNHYTQKSLSLSPGK	–	–	–	–	–	0.65
Fc variant D270E P396L G316D R416G (other, UniProt P01857-1 104-330, looked up, domain: Fc; also called D270E G316D P396L R416G) DKTHTCPPCPAPELLGGPSVFLFPPKPKDTLMISRTPEVTCVVVDVSHEEPEVKFNWYVDGVEVHNAKTKPREEQYNSTYRVVSVLTVLHQDWLNDKEYKCKVSNKALPAPIEKTISKAKGQPREPQVYTLPPSRDELTKNQVSLTCLVKGFYPSDIAVEWESNGQPENNYKTTPLVLDSDGSFFLYSKLTVDKSGWQQGNVFSCSVMHEALHNHYTQKSLSLSPGK	–	–	–	1.22	0.94	1.07
Fc variant D270E K392T P396L (other, UniProt P01857-1 104-330, looked up, domain: Fc) DKTHTCPPCPAPELLGGPSVFLFPPKPKDTLMISRTPEVTCVVVDVSHEEPEVKFNWYVDGVEVHNAKTKPREEQYNSTYRVVSVLTVLHQDWLNGKEYKCKVSNKALPAPIEKTISKAKGQPREPQVYTLPPSRDELTKNQVSLTCLVKGFYPSDIAVEWESNGQPENNYTTTPLVLDSDGSFFLYSKLTVDKSRWQQGNVFSCSVMHEALHNHYTQKSLSLSPGK	–	–	–	1.81	2.28	0.79
Fc variant F243L D270E G316D R416G (other, UniProt P01857-1 104-330, looked up, domain: Fc) DKTHTCPPCPAPELLGGPSVFLLPPKPKDTLMISRTPEVTCVVVDVSHEEPEVKFNWYVDGVEVHNAKTKPREEQYNSTYRVVSVLTVLHQDWLNDKEYKCKVSNKALPAPIEKTISKAKGQPREPQVYTLPPSRDELTKNQVSLTCLVKGFYPSDIAVEWESNGQPENNYKTTPPVLDSDGSFFLYSKLTVDKSGWQQGNVFSCSVMHEALHNHYTQKSLSLSPGK	–	–	–	1.5	1.34	0.2

From patent US20240131162A1 (MacroGenics, published 2024)
